Reference: patent publication US20240076381A1

Target: FcRn-µ2m fusion protein (human β2m fused by (Gly4Ser)3 to the extracellular domain of human FcRn, His-tagged) (human) (UniProt P61769)
Experiment: ELISA on coated FcRn-β2m fusion, pH 6; KD estimated by saturation binding fit

Sequence of UniProt P61769 (P61769 other isoform, or with tags, fused parts or gaps limits assumed): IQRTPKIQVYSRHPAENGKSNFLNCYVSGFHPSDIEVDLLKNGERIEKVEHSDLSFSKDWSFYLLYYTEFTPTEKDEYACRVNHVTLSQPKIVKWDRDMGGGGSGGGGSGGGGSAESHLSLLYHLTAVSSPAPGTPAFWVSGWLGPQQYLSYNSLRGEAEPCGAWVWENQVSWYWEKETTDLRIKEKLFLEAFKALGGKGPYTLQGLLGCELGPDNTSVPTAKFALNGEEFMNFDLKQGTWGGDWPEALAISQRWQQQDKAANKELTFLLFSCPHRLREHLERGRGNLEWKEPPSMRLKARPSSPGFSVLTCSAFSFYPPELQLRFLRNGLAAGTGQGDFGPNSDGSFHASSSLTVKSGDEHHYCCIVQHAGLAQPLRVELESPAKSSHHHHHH

Kd: 900 nM
Substance: Trastuzumab IgG (antibody)
